Laboratory results as given in the supplement of paper PMC12636428.

Each sequence was assayed on Saccharomyces cerevisiae (assay: transcriptional activation domain activity (GFP:mCherry ratio, weighted mean of sorted bins, harmonized to initial dataset scale) (arbitrary fluorescence ratio units); higher = stronger transcriptional activation). Details: beta-estradiol 1 µM; induction time 4 h.
Outline: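 The listed activation activity is a read-weighted mean of bin median fluorescence, averaged across barcodes and linearly mapped onto the initial dataset scale. Barcoded tiles, fused to an estradiol-inducible synthetic transcription factor, were integrated at URA3 in yeast diploids bearing a GFP reporter. Cells were held 4 hours at 30 °C in SC with 1 uM beta-estradiol, sorted into 8 GFP:mCherry bins, and sequenced, and tiles with fewer than 50 reads were excluded.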

Sequence	transcriptional activation domain activity
RLMKKKKKSSLVFVFNHFRPVYVFLFFFSLYFFPFLSTPYFFPSFFFLFLFWV	49900
SNTLSLALYTLIEHIGMQRLEYANNSLVMLLKLIHNIILSLKNLRLFFNFFVT	41900
SLAFPLFIIARYFPLGLIAIDFIQLAAPTHSQVTCTVLFRLYILLLMIITFST	40900
MILWARAWISLFLFLYLLFYLFVFSLDIPPFLLYTFFIFILLLCVFACTYRHK	49200
GSFVGFLFCFVDFGFWILEFSFFFSWMPAGVLSFWMVASQWGKADDIFFSLFF	50600
GGGGAGEEDAKGKARADEDVRESSRAKSTSKRKTSAAASGSESDSASSSSSYS	14900
NGQRFVQLLCNECGTVLELSVLLASVYLSLNMGDLVRLQPGCLYESQKRQWGP	16300
FWRYRQNQYAYILSYIVGSETSEERISVMRKNGTYHPAPYQFVYLRVRIANLS	38700
MGARYWILECGDWLMAKAVPNSLPIVSFLFLLFFPWPFFVFILYLTLIALYSS	42400
DDADGKARSRRKDYSDDERGDTRRSRRDEHRSSKEHRSRTVKEGENDRRKAHR	< 6570
EVMKIHPVQKQTRAGQRTRFKAYVVVGDSNGHVGLGVKCSKEVATAIRSAIIL	38700
LINYLLVLLVFRKWLKGHQVPLFVIMSYAWTRQLSFMDNVRRTNKRATLAMLR	57200
LLTFLLFSIFFFERLPHLYRSISLLLRPCFRLNIHFIFLILSRVFMYGSYGSF	55300
EGSARGGEAGKKEERQADEKEHKGRARPGRGEKDGGGRGRREEERDRKEQNGG	34000
FHPIPFLFSSSPLFLIPIFSFHIFHFLLLPFFPSLLLSSFSIPFIPLLSIHSS	57600
LHLMLQKLCFAATLRIATLPDKHPLHPFVKRVYRYLFLKSHRAPRHNLFEAFQ	55000
EEEEEEEGGETKKKRRRAASAAAKGRKGGRKSTASEEDEVVGGEESENRASKK	25400
LPFYFFLHCTLSMIPSIHSPSFLQSYICFMLIPPLPLMFIVVFHPLYFFWLFL	15000
AQEAIAEQGEERGDGAGQEKAPVGKRAAEDPAAAPRGSAKRKADKGERSGAEQ	7850
GGERREREEGTERREKEEAGRRRRESGRGQEGKKRGEGGGGRKKRGRDGGGPG	38500
ADEYIFHLTHGTLCICEHQGEENVVVVNVKSIISVVAMVPFPFIVRGCNNQYF	32600
KEVKEGEEGEKPKRGRKRKEAPAENGEKEPAAKKAKLASKAAPGSKPASKAAS	28300
FYTLIVEEDQSLWLCLKWCFFDMLFMFGIPLLEIPWLEWSNGAAFLLFVLHAG	63300
SYLHSFLLSFLYPPSPLVSSPFTLLCSFPYFFSFLSFFFSFSFPYSSSCFVFH	45000
LNGRRMMHEPLVYDMYEPQTPLIIIARVGVRLVFIVAKIGELPHCFIDEPPQQ	23200

Sequence	transcriptional activation domain activity
LTEHSNVNSVIWTNDLLNLNFTNILNMGLYINPKNLIPISGNNNNNKSNEEDD	62300
EKKRKRTEEEDAPKLKKKKTKSDLKRDSGGSSQEDSEAPAKKKKSSKSKKAKK	35800
MFFILASFSYYYYTHHISLDKVGNFLCRFIHPVFLCSIFIFPFLLYLFKIIYY	39100
MADPQEDNTAPGTKRRRLRGSCDKCKQRKIRCDSSEMPGNRCSNCIAFSSECT	31600
MAEADQSSHHQPEPRRTHRKSRNGCVTCKQRRVKCDEGRPTCQKCSFGNRPCS	41900
LVMAHYLYANACAKGEHLIVTTWDMYYEKWGFMLIFWNMAGVPLSYCHCTLYL	65300
KRKDGNGGAGREMKRGERDASPAKGKGASAARGRGGRGRGGRRGGSRGGKKRG	32600
LCIGIVLIAAFIAYEYLMVSGRVLARHLPHQKSMLPWELITNKDLGLLFYVNF	44400
MYYLYLSFCFLIVFFFFFFPLYCCCRLLFFSSSFVLFLSVLIILIPTFHAFFP	67800
FEFQHTRLYMAFRELEGKLLPCLIEANGLDLVIATLLSVVEKVTEVSNIRLTS	35600
MITYIILLLFFLLYYSIILFTSFSFSFFITFILHTITTLPVFILSCCSTFFFF	66600
MLVSVANLHYFFFPLSFGVCVLRYSSLAMCFFCIYCCLVTMLCILLLLLWSTI	39800
CFYLTTRFWDYKRKSYHYFLFGLCYFVNIMDLFYIWFFRDNVYYFIMCWCLTL	57200
CCLLRTLGRFLLFIIFSPSLSTSSFQTLPLTLPFYLLSIFTKKPLYPIPFLCI	44800
MTGIFFFFFLLFLFLQLGIGTVFERLLSFQFPNYILFPILPPLHPSSPPFFTY	38600
IGWWMVKSGLKDDLFAPGSHPRVSQYRLTAHLSTAFFCYSWMLLAGLSVLRTR	69800
SFGDLVSVGPRQYYRPTHSLTIISICEEDNNLPASLVKRFNMLMALLVILTNT	41300
EKKAPGRRGRPPKAAAAKKAKEAAAPGEEGAKPKRPVGRPRKGTTETAEKKGA	22300
EQEVQEERARTGTKGRKRALDDDAAKEEKEEKKEKPEKKEKATKSGKATSAAS	20800
MREYIRFYFDTLHSSRVFVVWLLTHVLFLEKDRLKAMFAKDEFNGIEEIKMRY	24900
ALKILVLLVFIMDTLHTYGIISYQWGLFLYCHHNASFACLSDLPWEVFMCVAL	41200
MFGKRFIYCLSIIDYGISPHEGITGFILCVCVVYFLECGFCYCWHSRRTSMSW	64400
LLHLAISQLQAYLDRFRTRLNAVHALHLKRLILFLTALDQFTCARVAGMKVRS	33700
ANGDDSAAPKPEGQEDKPVESNGASASAAAPSEPQQQEGQPKAEPAEPAPATV	26400
NLISLPLLKLCSEFAHVKWYEVLSHIVCFGFNGPTKPRSNNLVSLNLQCEHYK	48400

Sequence	transcriptional activation domain activity
MISLVYTGVDGEFGMLFGFGFWFCFLMGRRFTVFVFVFLDMFWGHVFCFVCIS	45600
MLKLCFFCAFLFLFLIIYYIYIFCFFFPFSLPSFSFFSFIPALIFFFFVVVEP	48200
AKDGEEEKEKPKRGRKRKEAPAAEGEAEGEAADDAEPPAKKTKPASKAAPASK	23100
REYNRMLRFYGVQDHQVKNTRLSVKEAFMLIIYRCVEVFCLFILSLPMIVLAS	58200
MILLVSFFFLLLIFFFSIREFRSECIVNDFWSFVYLSAYIVLDVCRIFFFLFW	25600
HELFALYNLLYFRKLLLPRVEVIWSPRLTLCAGICELSKDPKTGKFTRIRLKL	47000
LFTFRLLRICGPFVARLPSAERLLGWSTLASILGLWWNPRFAQVFRGFTRHIS	61800
MLLLPFIPSYLTFFLIFLFVLFDFHFWFLFLFGLTFSCCCWTLSFCKTSLIWF	57700
LEHVVLLLYCISAVVLQTRYGSVPIGWIEERPITIGFTMAFSGALRDCLMYAA	56400
SRSRSRRRKSSRRRRRDRSEDAESDDHRARRRHKSRKHSSRAGDDEDGKGRSR	26100
CDLQQSHYTPWRILFGLREPLVSAMNYLITYIPRGESSVIIGIRTFVLFSLCF	37900
FILSGCTFRLLFCIFGIRVWLDHQLCGNLLVVELYRKIVRSIDAYHHGKGYPT	61700
LLLLLDRFIDRNHLLDHIKIGTSDLLNLPGQRSIYISRLCRAICILGYNVNND	30400
VPLVSNSGIVCYDSKIMHAFLSGLLFLQGLMILWFIMIFKLVVRVLLGENAED	43900
SLEAWVPSVKLMMHDRSGLSRDGRTAVYHLIALTLRYSEIYVEQILVLWKGLV	44200
FFNILILQWRRIRCCKVVSTSLCLENTLGVAQLFVQFVLFTLIFILYMIYFPP	48300
HSRSPSRHRRRSYSRSRRYDSRSPRRRRSGSPSRRIVDEEEAAVTDGFIRAVA	37300
VSVRQASDGVGCLLEVMAHSRSVNAWTRVLKQLRLAQCVLLNIQQSLSQVWSM	77300
MTTLYISFLFFLFCASFTFCTIFFFFFFFFTQWLYSSPLHLSLSLSLLFLFLI	65100
MLLSMLYNSVGYQYLEDHCPQGGEYSDLLRNLINECEAILPSYEIIERYKNHF	39500
PAADKSDAPRKPVSISIGGGAKKAEEAKPEPAKAASEGPAPAGGVAAVKAAAA	39300
MHASFIFLSSTSGVIHTYILYLDLVAYFLLSLGGFVLIIGFWRWGFCCFFLPS	69100
RKTGGRSKRTTRGEGKKEEGRSPTKERTTKGARRSKEETRAGGRTSQAEERGK	33900
MIWCSFLLALSWSYFCDLPCFFFFFFFFFFFFFFFADIYCSFLSFKLITPISF	52600
